Experimental data: PMC2756588

How the values were obtained:
Assay in all cases: SPOT array
Abp1, P15891 = biological target: T1, Abp1, P15891; settings: median of control spots 935
T1 sequence (P15891 535-592, looked up): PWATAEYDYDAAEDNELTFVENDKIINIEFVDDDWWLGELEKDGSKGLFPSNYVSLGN

Bbc1, P47068 = biological target: T2, Bbc1, P47068; settings: median of control spots 796
T2 sequence (P47068 1-78, looked up): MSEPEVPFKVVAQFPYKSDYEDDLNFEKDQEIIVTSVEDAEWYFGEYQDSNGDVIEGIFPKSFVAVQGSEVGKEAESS

Bem1-1, P29366 = settings: median of control spots 4282
Bem1-1, P29366, sequence (P29366 55-141): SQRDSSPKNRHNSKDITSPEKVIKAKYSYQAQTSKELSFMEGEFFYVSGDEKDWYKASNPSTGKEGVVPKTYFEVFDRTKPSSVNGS

Bem1-2, P29366 = settings: median of control spots 4347
Bem1-2, P29366, sequence (P29366 139-227): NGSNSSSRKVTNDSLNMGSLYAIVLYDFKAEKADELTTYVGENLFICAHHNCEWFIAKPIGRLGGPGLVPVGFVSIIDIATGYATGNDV

Boi1, P38041 = biological target: T3, Boi1, P38041; settings: median of control spots 1162
T3 sequence (P38041 1-86, looked up): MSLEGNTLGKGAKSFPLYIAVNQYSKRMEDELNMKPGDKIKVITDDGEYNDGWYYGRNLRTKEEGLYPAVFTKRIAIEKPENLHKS

Boi2, P39969 = biological target: T4, Boi2, P39969; settings: median of control spots 1161
T4 sequence (P39969 32-116, looked up): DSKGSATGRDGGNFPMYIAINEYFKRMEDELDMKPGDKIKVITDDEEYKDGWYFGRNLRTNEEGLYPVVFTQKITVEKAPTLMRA

Bud14, P27637 = biological target: T5, Bud14, P27637; settings: median of control spots 956
T5 sequence (P27637 247-328, looked up): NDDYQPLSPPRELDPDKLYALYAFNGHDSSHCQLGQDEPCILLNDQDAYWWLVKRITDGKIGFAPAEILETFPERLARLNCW

Bzz1-1, P38822 = biological target: T6, Bzz1-1, P38822; settings: median of control spots 4446
T6 sequence (P38822 478-572, looked up): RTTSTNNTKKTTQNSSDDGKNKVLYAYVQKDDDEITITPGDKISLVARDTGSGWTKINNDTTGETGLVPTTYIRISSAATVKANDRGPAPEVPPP

Bzz1-2, P38822 = biological target: T7, Bzz1-2, P38822; settings: median of control spots 4538
T7 sequence (P38822 568-633, looked up): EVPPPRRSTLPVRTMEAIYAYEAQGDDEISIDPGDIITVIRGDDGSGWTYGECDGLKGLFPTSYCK

Cdc25, P04821 = biological target: T8, Cdc25, P04821; settings: median of control spots 969
T8 sequence (P04821 50-136, looked up): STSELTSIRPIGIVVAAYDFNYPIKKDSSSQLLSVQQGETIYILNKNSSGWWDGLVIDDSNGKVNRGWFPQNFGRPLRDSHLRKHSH

Cyk3, Q07533 = biological target: T9, Cyk3, Q07533; settings: median of control spots 1451
T9 sequence (Q07533 1-83, looked up): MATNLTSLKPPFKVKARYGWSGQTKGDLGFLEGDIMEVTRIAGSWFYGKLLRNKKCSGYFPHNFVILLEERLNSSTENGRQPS

Fus1, P11710 = biological target: T10, Fus1, P11710; settings: median of control spots 1200
T10 sequence (P11710 432-512, looked up): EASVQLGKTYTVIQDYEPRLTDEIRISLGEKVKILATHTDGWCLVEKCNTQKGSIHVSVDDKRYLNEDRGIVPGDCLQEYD

GST = settings: median of control spots 978
Hof1, Q05080 = biological target: T11, Hof1, Q05080; settings: median of control spots 4086
T11 sequence (Q05080 590-669, looked up): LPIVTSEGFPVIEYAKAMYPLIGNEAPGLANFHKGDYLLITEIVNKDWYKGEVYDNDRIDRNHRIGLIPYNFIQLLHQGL

Hse1, P38753 = biological target: T12, Hse1, P38753; settings: median of control spots 1727
T12 sequence (P38753 208-285, looked up): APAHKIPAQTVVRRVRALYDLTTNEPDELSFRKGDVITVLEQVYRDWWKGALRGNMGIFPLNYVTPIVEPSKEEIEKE

Lsb1, P53281 = biological target: T13, Lsb1, P53281; settings: median of control spots 388
T13 sequence (P53281 45-122, looked up): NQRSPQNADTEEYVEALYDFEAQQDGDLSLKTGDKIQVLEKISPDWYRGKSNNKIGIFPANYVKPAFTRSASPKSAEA

Lsb3, P43603 = biological target: T14, Lsb3, P43603; settings: median of control spots 406
T14 sequence (P43603 385-451, looked up): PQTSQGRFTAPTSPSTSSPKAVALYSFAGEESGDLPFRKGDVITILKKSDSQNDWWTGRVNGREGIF

Lsb4, P32793 = biological target: T15, Lsb4, P32793; settings: median of control spots 397
T15 sequence (P32793 402-468, looked up): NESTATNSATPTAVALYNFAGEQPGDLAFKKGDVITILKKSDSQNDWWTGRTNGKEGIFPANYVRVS

Myo3, P36006 = settings: median of control spots 468
Myo5, Q04439 = biological target: T16, Myo5, Q04439; settings: median of control spots 471
T16 sequence (Q04439 1072-1160, looked up): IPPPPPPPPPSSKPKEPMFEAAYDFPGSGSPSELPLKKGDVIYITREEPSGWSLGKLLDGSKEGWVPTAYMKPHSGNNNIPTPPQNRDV

Nbp2, Q12163 = biological target: T17, Nbp2, Q12163; settings: median of control spots 357
T17 sequence (Q12163 103-180, looked up): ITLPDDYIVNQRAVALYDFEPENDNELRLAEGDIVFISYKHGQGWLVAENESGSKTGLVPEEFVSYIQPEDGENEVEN

Pex13, P80667 = biological target: T18, Pex13, P80667; settings: median of control spots 1341
T18 sequence (P80667 295-386, looked up): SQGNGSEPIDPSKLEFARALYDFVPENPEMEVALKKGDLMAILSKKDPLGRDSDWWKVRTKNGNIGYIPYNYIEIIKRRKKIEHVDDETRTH

Pin3, Q06449 = biological target: T19, Pin3, Q06449; settings: median of control spots 2171
T19 sequence (Q06449 53-122, looked up): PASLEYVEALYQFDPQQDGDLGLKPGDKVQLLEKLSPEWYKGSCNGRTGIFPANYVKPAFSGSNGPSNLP

Rvs167, P39743 = settings: median of control spots 2707
Rvs167, P39743, sequence (P39743 419-482): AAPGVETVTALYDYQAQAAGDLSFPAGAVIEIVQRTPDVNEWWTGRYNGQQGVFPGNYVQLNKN

Sho1, P40073 = settings: median of control spots 1148
Sho1, P40073, sequence (P40073 287-367): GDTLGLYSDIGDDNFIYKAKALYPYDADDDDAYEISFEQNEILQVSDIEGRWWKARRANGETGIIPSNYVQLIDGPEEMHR

Sla1-2, P32790 = biological target: T20, Sla1-2, P32790; settings: median of control spots 712
T20 sequence (P32790 60-140, looked up): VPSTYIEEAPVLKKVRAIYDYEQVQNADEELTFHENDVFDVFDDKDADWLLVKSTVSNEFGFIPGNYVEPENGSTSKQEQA

Sla1-3, P32790 = biological target: T21, Sla1-3, P32790; settings: median of control spots 5475
T21 sequence (P32790 344-424, looked up): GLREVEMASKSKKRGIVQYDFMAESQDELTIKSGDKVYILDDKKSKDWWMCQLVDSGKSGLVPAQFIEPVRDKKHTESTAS

B1: unnamed (peptide)
chain: KNRKNLPTIPIRLSG
Binder B1 has an SPOT intensity (Abp1, P15891) of 333, an SPOT intensity (Bbc1, P47068) of 25 and an SPOT intensity (Bem1-1, P29366) of 4. For the same binder, the SPOT intensity (Bem1-2, P29366) was 16, the SPOT intensity (Boi1, P38041) was 3 and the SPOT intensity (Boi2, P39969) was 2. For the same binder, the SPOT intensity (Bud14, P27637) was 3, the SPOT intensity (Bzz1-1, P38822) was 0 and the SPOT intensity (Bzz1-2, P38822) was 4. For the same binder, the SPOT intensity (Cdc25, P04821) was 5, the SPOT intensity (Cyk3, Q07533) was 1 and the SPOT intensity (Fus1, P11710) was 24. For the same binder, the SPOT intensity (GST) was 0, the SPOT intensity (Hof1, Q05080) was 26 and the SPOT intensity (Hse1, P38753) was 2. The SPOT intensity (Lsb1, P53281) was 1220, the SPOT intensity (Lsb3, P43603) was 25 and the SPOT intensity (Lsb4, P32793) was 103. The SPOT intensity (Myo3, P36006) was 5, the SPOT intensity (Myo5, Q04439) was 1 and the SPOT intensity (Nbp2, Q12163) was 47. The SPOT intensity (Pex13, P80667) was 13, the SPOT intensity (Pin3, Q06449) was 15 and the SPOT intensity (Rvs167, P39743) was 86. The SPOT intensity (Sho1, P40073) was 1660, the SPOT intensity (Sla1-2, P32790) was 0 and the SPOT intensity (Sla1-3, P32790) was 55.

B2: unnamed (peptide)
chain: QLMKNLPKIPLLNDI
With B2 the SPOT intensity (Abp1, P15891) was 76, the SPOT intensity (Bbc1, P47068) was 0 and the SPOT intensity (Bem1-1, P29366) was 5. For the same binder, the SPOT intensity (Bem1-2, P29366) was 0, the SPOT intensity (Boi1, P38041) was 1 and the SPOT intensity (Boi2, P39969) was 1. It also gave an SPOT intensity (Bud14, P27637) of 0, an SPOT intensity (Bzz1-1, P38822) of 1 and an SPOT intensity (Bzz1-2, P38822) of 7. The SPOT intensity (Cdc25, P04821) was 0, the SPOT intensity (Cyk3, Q07533) was 0 and the SPOT intensity (Fus1, P11710) was 0. It also gave an SPOT intensity (GST) of 1, an SPOT intensity (Hof1, Q05080) of 11 and an SPOT intensity (Hse1, P38753) of 1. It also gave an SPOT intensity (Lsb1, P53281) of 6, an SPOT intensity (Lsb3, P43603) of 21 and an SPOT intensity (Lsb4, P32793) of 41. It also gave an SPOT intensity (Myo3, P36006) of 72, an SPOT intensity (Myo5, Q04439) of 68 and an SPOT intensity (Nbp2, Q12163) of 10. It also gave an SPOT intensity (Pex13, P80667) of 162, an SPOT intensity (Pin3, Q06449) of 78 and an SPOT intensity (Rvs167, P39743) of 0. For the same binder, the SPOT intensity (Sho1, P40073) was 861, the SPOT intensity (Sla1-2, P32790) was 5 and the SPOT intensity (Sla1-3, P32790) was 2.

B3: unnamed (peptide)
chain: SRSKPLPLTPNSKYN
B3 was tested, and the SPOT intensity (Abp1, P15891) was 109, the SPOT intensity (Bbc1, P47068) was 5 and the SPOT intensity (Bem1-1, P29366) was 0. For the same binder, the SPOT intensity (Bem1-2, P29366) was 1, the SPOT intensity (Boi1, P38041) was 2 and the SPOT intensity (Boi2, P39969) was 0. The SPOT intensity (Bud14, P27637) was 5, the SPOT intensity (Bzz1-1, P38822) was 2 and the SPOT intensity (Bzz1-2, P38822) was 4. The SPOT intensity (Cdc25, P04821) was 2, the SPOT intensity (Cyk3, Q07533) was 1 and the SPOT intensity (Fus1, P11710) was 0. For the same binder, the SPOT intensity (GST) was 0, the SPOT intensity (Hof1, Q05080) was 0 and the SPOT intensity (Hse1, P38753) was 1. It also gave an SPOT intensity (Lsb1, P53281) of 0, an SPOT intensity (Lsb3, P43603) of 0 and an SPOT intensity (Lsb4, P32793) of 2. It also gave an SPOT intensity (Myo3, P36006) of 0, an SPOT intensity (Myo5, Q04439) of 0 and an SPOT intensity (Nbp2, Q12163) of 0. It also gave an SPOT intensity (Pex13, P80667) of 21, an SPOT intensity (Pin3, Q06449) of 19 and an SPOT intensity (Rvs167, P39743) of 1. The SPOT intensity (Sho1, P40073) was 1030, the SPOT intensity (Sla1-2, P32790) was 3 and the SPOT intensity (Sla1-3, P32790) was 7.

B4: unnamed (peptide)
chain: RRSKSLPTTPGIRSG
Binder B4 has an SPOT intensity (Abp1, P15891) of 229, an SPOT intensity (Bbc1, P47068) of 19 and an SPOT intensity (Bem1-1, P29366) of 1. It also gave an SPOT intensity (Bem1-2, P29366) of 0, an SPOT intensity (Boi1, P38041) of 3 and an SPOT intensity (Boi2, P39969) of 1. The SPOT intensity (Bud14, P27637) was 20, the SPOT intensity (Bzz1-1, P38822) was 0 and the SPOT intensity (Bzz1-2, P38822) was 1. For the same binder, the SPOT intensity (Cdc25, P04821) was 17, the SPOT intensity (Cyk3, Q07533) was 0 and the SPOT intensity (Fus1, P11710) was 63. It also gave an SPOT intensity (GST) of 0, an SPOT intensity (Hof1, Q05080) of 0 and an SPOT intensity (Hse1, P38753) of 5. For the same binder, the SPOT intensity (Lsb1, P53281) was 8, the SPOT intensity (Lsb3, P43603) was 1 and the SPOT intensity (Lsb4, P32793) was 2. The SPOT intensity (Myo3, P36006) was 12, the SPOT intensity (Myo5, Q04439) was 0 and the SPOT intensity (Nbp2, Q12163) was 49. For the same binder, the SPOT intensity (Pex13, P80667) was 8, the SPOT intensity (Pin3, Q06449) was 5 and the SPOT intensity (Rvs167, P39743) was 0. For the same binder, the SPOT intensity (Sho1, P40073) was 1350, the SPOT intensity (Sla1-2, P32790) was 0 and the SPOT intensity (Sla1-3, P32790) was 26.
